Laboratory results from publication PMC4706430.

Target: Elastase (human neutrophil elastase) (human) (UniProt P08246)
Sequence (P08246 30-267): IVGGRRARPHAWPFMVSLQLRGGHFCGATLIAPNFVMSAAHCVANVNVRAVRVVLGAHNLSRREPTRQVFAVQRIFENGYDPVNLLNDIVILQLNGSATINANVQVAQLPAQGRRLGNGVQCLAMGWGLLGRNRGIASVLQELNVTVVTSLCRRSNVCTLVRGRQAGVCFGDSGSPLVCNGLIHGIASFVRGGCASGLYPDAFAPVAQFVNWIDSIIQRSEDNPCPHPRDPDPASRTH

Boophilin (natural protein)
cleavage of TFPI (1 μg) by elastase (0.8 μg/mL) with Boophilin 0-3 μM, SDS-PAGE (Fig 4D): 20%
